From US20110262477A1 (priority 2008, published 2011)

System: Nc1ncnc2c1ncn2[C@@H]1O[C@H](COP(=O)(O)O)[C@@H](O)[C@H]1O
Experiment: purified protein, by the assay type
Conditions: pH 7.5; 37.0 °C

**Q.** “Bacillus anthracis BasA (AdsA homolog, NCBI locus tag BAS4031), tagged, affinity purified from E. coli, SEQ ID NO:41 (Bacillus anthracis)” was tested. Which Km did it give?
**A.** Its Km is 2.01 nM.
